Measurements reported in the supplement of paper PMC10567573.

B1: C22orf15 (parent)
chain: ITQSWQVSVRVQPRGRAHLLPNPY
B2: ZNF449 (parent)
chain: HTGERPYECTVCKKRFTRRSHLIG

Variants of: B1
Experiment: protein stability index of a GFP-peptide fusion (GPS, HEK-293T) (PSI 1-6); higher = more stable
Conditions: c terminus: a fixed tail appended
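Also: lentivirally expressed fusions sorted by FACS into six bins by GFP to DsRed ratio, PSI derived from sequencing read proportions per bin multiplied by bin number.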

Protein stability index: each site, then its substitutions
T2: E 1.69 | L 2.27 | K 1.87 | G 1.77 | F 2.43 | C 3.3 | A 1.43 | D 2.46 | H 1.45
I1: S 1.78 | V 1.41 | C 4.55 | T 1.9 | F 2.74 | P 1.64 | Y 3.3 | A 2.73 | K 2.18 | Q 1.31 | D 2.12 | N 2.24 | H 2.61 | M 1.26 | G 1.92 | R 1.68 | L 1.5

Variants of: B2
Experiment: as above
Conditions: c terminus: a fixed tail appended

Protein stability index, by site and new letter:
F16: I 1.71 | Y 1.99 | H 3.32 | T 2 | L 1.67 | W 1.96 | M 1.89 | S 2.51 | D 3 | G 2.82 | A 2.1 | P 3.2 | Q 2.4 | R 2.89 | C 2.42 | N 2.72
L22: E 3.43 | N 2.08 | A 3.16 | K 2.35 | W 2.66 | H 3 | S 2.92 | V 3.02 | D 2.6 | I 2.23 | R 3.15 | M 1.86 | Y 2.33 | F 1.3 | C 3.46 | Q 2.58
H21: W 2.78 | C 2.1 | S 2.93 | L 3.45 | D 2.27 | F 1.83 | P 3.26 | T 2.83 | A 2.22 | Y 2.35 | Q 1.82 | I 1.56 | V 2.97 | N 2.39 | E 2.31 | R 2.37
E8: N 1.79 | C 2.38 | P 1.94 | H 2.12 | Q 2.76 | T 2 | R 2.22 | K 1.96 | I 2.74 | V 2.35 | W 2.23 | G 1.84 | F 1.84 | L 2.77 | S 2.32 | D 2.72 | Y 2.15 | A 1.77
K14: V 2.09 | A 1.89 | W 1.49 | S 2.27 | M 1.61 | G 1.44 | Q 1.75 | I 2.26 | R 1.53 | E 1.73 | C 2.01 | H 2.58 | L 1.66 | D 2.29 | P 1.97
V11: N 2.8 | L 2.08 | Y 2.64 | E 3.06 | D 2.44 | K 3.82 | C 2.29 | Q 3.12 | P 2.58 | W 2.6 | G 2.99 | M 1.91 | H 2.99 | T 3.47 | F 1.47 | S 2.58 | I 1.58 | R 2.39
T10: Q 1.36 | D 1.97 | A 2.42 | L 2.37 | M 2.51 | S 2.52 | F 2.88 | C 2.54 | N 2.17 | I 3.07 | P 1.82 | V 1.39 | Y 3.04 | W 1.3
K13: G 1.52 | W 2.62 | R 2.31 | P 2.86 | Q 2 | C 1.06 | A 1.63 | F 2 | D 2.91 | Y 2.47 | T 2.33 | L 2.09 | M 1.62 | N 1.78 | I 2.06 | V 3.25 | E 2.42
P6: T 2.58 | Q 3.29 | L 1.58 | K 2.02 | M 2.74 | R 1.82 | I 2.08 | N 2.3 | Y 2.22 | W 2.38 | V 3.36
